Test results reported in the DeepSol protein solubility set.

Test: soluble on expression in E. coli; label from the status in PepcDB or PDB records
For “MVFPSEQEQIEKFEKDHVAQHYFEVLRTLISKKSVFAQQVGLKEVANYLGEIFKRVGAEVEIDESYTAPFVMAHFKSSRPDAKTLIFYNHYDTVPADGDQVWTEDPFTLSVRNGFMYGRGVDDDKGHITARLSALRKYMQHHDDLPVNISFIMEGAEESASTDLDKYLEKHADKLRGADLLVWEQGTKNALEQLEISGGNKGIVTFDAKVKSADVDIHSSYGGVVESAPWYLLQALQSLRAADGRILVEGLYEEVQEPNEREMALLETYGQRNPEEVSRIYGLELPLLQEERMAFLKRFFFDPALNIEGIQSGYQGQGVKTILPAEASAKLEVRLVPGLEPHDVLEKIRKQLDKNGFDKVELYYTLGEMSYRSDMSAPAILNVIELAKKFYPQGVSVLPTTAGTGPMHTVFDALEVPMVAFGLGNANSRDHGGDENVRIADYYTHIELVEELIRSYE”, the “soluble on expression in E. coli” value was “soluble”.
With “MVFRKYRAVKQWGKMDTRIFKEIYNSRNKRKMPAFEVPDAVKALGVPVFEPNEIFQLSNRKNLVEQAAKEHMENELKFTEPPQQHPLQKSHPAYIFEAAEPMSDGIAQAAVLTRSVVATGGLPDTILLNSAAKLEIDEEMVKDAILHGERYNPSLEKLPARFDPVMFWIRHPRLHGTPVIKKNNIILNNLLRHVVLGGLRTQALKQNFQFSTKILQKNSNFLWKIQKNLIFSDFRLKLKNFCRVNRDSPLSVYVSGGQYFSKNALVLRAQPHLTVQSADSTVTMPWAGPIDVKAVWRIFTKMFSFSSFSYQNSSIFHQKLSKIFSAEPLPDIYPISPVIDFSMDTIYNDDVLLTRRSQQQKTHIHSILWSREQDQKYPWTSEQNMANAILTTYAAAVAEATRNGATTELEKPLLVRGVQLVNGRLDLVAMQLNTLKPTSEAGNNDEKNIVWIEKGLRLYKPTPYYEQMDTVEKLDMTVFHKFVALMLGFGAPHAH” the “soluble on expression in E. coli” value was “not soluble”.
With “MVGEGEIELRNELPGGEVHAAWHLRYAGHDFFVKCDEREMLRGFTAEADQLELLSRSKTVVVPKVWAVGSDRDYSFLVMDYLSPRPLDAHNAFILGQQLARLHQWSDQPQFGLDFDNALSTTPQPNTWQRRWSTFFAEQRIGWQLELAAEKGITFGNIDAIVEHVQQRLASHQPQPSLLHGDLWSANCALGPDGPYIFDPACYWGDRECDLAMLPLHTDQPPQIYDGYQSVSPLPLDFLDRQPIYQLYTLLNRARLFGGQHLATAQKAMDRLLAVLEHHHHHH” the “soluble on expression in E. coli” value was “not soluble”.
In the case of “MVGPLKIGRHEVKYPLIQGGMGVRISGGRLAGHVAKCGGVGLVAAAGISLSGLFTGANYLQSNPEAMRKELRKAYAIAPDGVIGVNIMVALTDYEELVRASIDGGAKVIVCGAGLPLTLPELTAHAPEVALVPIVSSVRAAQLIAKKWEKGFGRLPDAVVVEDPDTAGGHLGEKLENIGAGTYDQYGTIRAIKAYFLEEYGVSVPVVAAGGIWDRDDVLHAFEQGADAVQMASRFVPTVECDADDAYKQAYLECRREDIGLIMSPAGLPGRAILRNQDQIVLHDQLKGVACGNGCLKKCSYKETGERFCIVNALDRAQRGDVETGLVFCGTNAWKADRITTVQEIFDELFAVGEESEKAA”, the “soluble on expression in E. coli” value is reported as “not soluble”.
For “MVGRRDGPFKPPGGLLRAFLVRVDAGHLRTVSYSTVLASTSAHSSALPPRRSPPMNAPAKSLLDIDAFPLVQVREMPRELADVERWLEEVEALLAVERDFALVYPPLPQETAEGDQQARKRLVLWLKENRQRFVEHCRGILLSANGQPDNLADLQQLAPVLQAVYGPPVSVAPDLASARGMAKALLSGPATGMNW”, the “soluble on expression in E. coli” value was “not soluble”.
With “MVHIKKGELTQEEKELLEVIGKGTVQEAGTLLSSKNVRVNCLDENGMTPLMHAAYKGKLDMCKLLLRHGADVNCHQHEHGYTALMFAALSGNKDITWVMLEAGAETDVVNSVGRTAAQMAAFVGQHDCVTIINNFFPRERLDYYTKPQGLDKEPKLPPKLAGPLHKIITTTNLHPVKIVMLVNENPLLTEEAALNKCYRVMDLICEKCMKQRDMNEVLAMKMHYISCIFQKCINFLKDGENKLDTLIKSLLKGRASDGFPVYQEKIIRESIRKFPYCEATLLQQLVRSIAPVEIGSDPTAFSVLTQAITGQVGFVDVEFCTTCGEKGASKRCSVCKMVIYCDQTCQKTHWFTHKKICKNLKDIYEKQQLEAAKEKRQEENHGKLDVNSNCVNEEQPEAEVGISQKDSNPEDSGEGKKESLESEAELEGLQDAPAGPQVSEE” the “soluble on expression in E. coli” value was “soluble”.
For “MVHWADYIADKIIRERGEKEKYVVESGITPSGYVHVGNFRELFTAYIVGHALRDKGYEVRHIHMWDDYDRFRKVPRNVPQEWKDYLGMPISEVPDPWGCHESYAEHFMRKFEEEVEKLGIEVDLLYASELYKRGEYSEEIRLAFEKRDKIMEILNKYREIAKQPPLPENWWPAMVYCPEHRREAEIIEWDGGWKVKYKCPEGHEGWVDIRSGNVKLRWRVDWPMRWSHFGVDFEPAGKDHLVAGSSYDTGKEIIKEVYGKEAPLSLMYEFVGIKGQKGKMSGSKGNVILLSDLYEVLEPGLVRFIYARHRPNKEIKIDLGLGILNLYDEFEKVERIYFGVEGGKGDDEELRRTYELSMPKKPERLVAQAPFRFLAVLVQLPHLTEEDIINVLIKQGHIPRDLSKEDVERVKLRINLARNWVKKYAPEDVKFSILEKPPEVEVSEDVREAMNEVAEWLENHEEFSVEEFNNILFEVAKRRGISSREWFSTLYRLFIGKERGPRLASFLASLDRSFVIKRLRLEG”, the “soluble on expression in E. coli” value was “soluble”.
With “MVIEMEPDTHIISALVEHKPGVLQRVAGLFTRRGFNIENITVGESETPGIARMTIIARGDDRVLEQITKQLNKLIDVIKVRDLEPAATVKRELCMVKVHAPSESERSEIIQYTNIFRGRIVDVSPDALTVEVTGDSEKIDAFLELLRNFGIKELARTGPTAMSRGSRTM” the “soluble on expression in E. coli” value was “not soluble”.
For “MVIEVPQTERVNDVDVFLSTQDGQIQRPKGPNCRHPVRQKCTNCLPVDPFDEEYLKEKDIKHMSFHAHVRKLLGSQGKGTTLKKPLENFRCSLKPNCDAHKPFPKGICTKCKPQVVTLNRQKFRHVDNIQIENQELVNQFLDYWRLSGHQRVGFLIGQYQPHLEVPLGIKATVAAIYEPPQHCREDGIEFLEDKNQKTIDNLLEMLGLQRVGWIFTDCWTANSAEGTVHYTRHKDSFFLSAEECITAAMLQNQHPNITEYSMDRHYGSKFVTVVASGDESMHVNFHGYQVSNQCAAMVEADILCPTLYTPELAYVRETPLSEEHYITDVQFSMKNEYGAEVMKNGRPLPVEYLLVDVPAGMPKEPHYTFHVGTSNKSKSAKFNVENRQAIGQLQGGANLIQYSSEFSTNQFLEQATNFHFLLYLVTNDQVQISDEWMKRLCDAVKAQDRGTAMEWAQECEDWHQLMALAHANGGSGNDDIPVIPNGDPFSGSSSGGSRGAVWSCGHCTFQNEAGRQDCSMCGLPAAD”, the “soluble on expression in E. coli” value was “not soluble”.
In the case of “MVIMLATMLHSIAVGNLLPSYVKTICVDMNPSTVTKLMDRGTHQAIGVVTDVGLFLPLLYLKIKEIEAKE”, the “soluble on expression in E. coli” value is reported as “not soluble”.
For “MVIVGGQDRSISTRQGAAMTDTPPPETDAAPEVPGAAPGKTLTPAARRALEEAAARRAAEAALSLPPEEGGRDGPEPTRFGDWEKKGVAVDFLEHHHHHH”, the “soluble on expression in E. coli” value was “not soluble”.
With “MVKETKLYDLLGVSPSANEQELKKGYRKAALKYHPDKPTGDTEKFKEISEAFEILNDPQKREIYDQYGLEAARSGGPSFGPGGPGGAGG” the “soluble on expression in E. coli” value was “soluble”.
With “MVKKEFQLTHIFKNVSKLKVGKFAWTPMKEHFNVSWQIAITRTHFRNEEKMEIQVGCQKLTKDDVPAGVEGEFTIKLTNSSGISTSKSSRLKLVKNGGLGFLKIVWKVMQDEYLIDDSIIIEATVKITKMTGISKKPLKCFDQSKEKFSDVILAVGDQKFFVLRKFLASHSTFFESRFLGNFDEADKSEVTLRDIDSADFQNLLEVLYGEPAIDDDTVDGILHLAHMYDIPLPIRKCEEFLIEVSEKSMKDQLVLAKQYQLEKLKVKKKT” the “soluble on expression in E. coli” value was “not soluble”.
